Laboratory results reported in patent publication US8492099B2, “Method of measuring enzymatic activity of adsorbed allergenic enzyme” (Alk-Abello A/S, priority 2005, dated 2013).
One block for each molecule: values may come before it.

Assays:
papain = molecular target: T1, papain (Carica papaya, UniProt P00784); conditions: 12.5 nM E-64, papain 5 nM
T1 sequence (P00784 134-345): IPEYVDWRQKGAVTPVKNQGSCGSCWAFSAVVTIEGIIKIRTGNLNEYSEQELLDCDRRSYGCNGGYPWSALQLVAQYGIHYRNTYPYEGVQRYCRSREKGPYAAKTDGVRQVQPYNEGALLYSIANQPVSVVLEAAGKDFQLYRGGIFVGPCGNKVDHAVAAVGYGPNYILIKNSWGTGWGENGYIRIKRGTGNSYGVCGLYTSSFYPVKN
Procedure: Stock solutions of 1M DTT and 100 mM EDTA were made in the beginning of the experimental period, frozen at −20° C., and used through the entire project period. Each day a new buffer was made containing the reducing agent DTT and EDTA from the stock solutions. […] DTT is continuously oxidized by the oxygen in the air and therefore a new buffer must be made each day. […] The microtiter plate was opaque to avoid cross contamination of emitted fluorescence between wells. The substrate was diluted to the final concentration in the newly made buffer containing DTT and EDTA and transferred to the microtiter plate. The enzyme was diluted in the same buffer and incubated 10 min in the case of papain and 20 min in the case of Der p 1, for their activation. Mixing, transferring and incubation were carried out at room temperature. After incubation the enzyme solution was transferred to the microtiter plate and the measurements were initiated. The measurements were carried out for 10 min with a total of 36 measurements for each well and automatic mixture between each measurement.
EDTA was added at 1 mM, and DTT at 5 mM final concentrations.

[1] = Quenching of AMC fluorescence by aluminium hydroxide; format: physicochemical; conditions: 1 μM AMC, during the time of the assay
From the text: This AMC concentration is equivalent to the enzymatic assay AMC concentration generated by papain and Der p 1.

[2] = Der p 1 enzyme activity fluorescence assay (activity measurements and Michaelis-Menten kinetic), Der p 1/aluminium hydroxide adsorption experiment; format: biochemical
Procedure: After measuring the enzymatic activity the maximal slope of the progress curve was estimated using the software SoftMax® PRO Life Sciences Edition, Molecular Devices, 2001. After estimating the initial velocity of the experiments they were transferred to Prism and analyzed.
After adsorption 500 μL was taken out for further analysis and the rest of the mixture was centrifuged for 10 min at 4000 rpm. An elution step was performed for 1 h at 4° C. where the pellet of Mix2 was resuspended in phosphate buffer. […] Con1 was analyzed in the beginning of the experiment and Con2 was analyzed at the end of the 2 hours experiment.
Different types of enzymatic assays were performed: (i) activity measurements using a fixed substrate concentration to evaluate enzyme activity, and (ii) Michaelis-Menten kinetic to estimate the kinetic parameters Vmax and KM.
All activity assays were conducted with Tris buffer, pH 7.0, 5 mM DTT, 1 mM EDTA and Boc-QAR-AMC as substrate.

[3] = Adsorption of Der p 1 to aluminium hydroxide: protein concentration by A280; format: physicochemical
From the text: The aromatic amino acids tryptophan, tyrosine and phenylalanine absorb ultraviolet light. However only tryptophan and tyrosine absorb at 280 nm and tryptophan absorbs 5 times more light than tyrosine. This is due to the […] transition in the indole ring of tryptophan where phenylalanine and tyrosine contains a phenyl group. The absorbance of a protein is linearly correlated with the amount of tryptophan and tyrosine in the protein, the length of the light path and the concentration of protein. This relationship is named Lambert-Beer's law and is given by: A=ε·l·c where A is the absorbance, ε is the molar absorption coefficient for the protein (determined by the amount of tryptophan and tyrosine in the protein) l is the length of the light path and c is the protein concentration. Thus from an absorbance measurement the concentration of protein can be estimated if the molar absorptivity coefficient is known. • Apparatuses • Lambda 800 UV/VIS Spectrometer, PerkinElmer™ • 100-QS, quartz cuvette, path length 1 cm, Hellma® • Materials and Reagents • 50 mM Bis-Tris pH 6.5, Sigma • 50 mM Tris pH 7.0, Sigma • 50 mM phosphate buffer pH 7.0, Merck • 2% Helmanex solution, Hellma Experimental Procedure
The spectrophotometer was turned on 30 min prior to use for a warm up period. The wavelength of the spectrophotometer was set to 280 nm and the instrument was zeroed to a blank sample containing the matrix of the true sample. The quartz cuvette was washed first with a 2% Helmanex solution and then 4 times with MQ water and afterwards dried with high pressure air. […] After cleaning the cuvette 20 μL of sample was transferred to the cuvette and the absorbance was measured.
(§1) After adsorption 500 μL was taken out for further analysis and the rest of the mixture was centrifuged for 10 min at 4000 rpm. […] Con1 was analyzed in the beginning of the experiment and Con2 was analyzed at the end of the 2 hours experiment.
The absorbance measurements were converted to protein concentration by the Lambert-Beer's law using a molar absorption coefficient for Der p 1 of […] as shown in table 8a. […]

[4] = Adsorption of Der p 1 to aluminium hydroxide: protein concentration by rocket immune electrophoresis (RIE); format: physicochemical
From the text: This method was used to quantify a given protein by measuring the propagation of protein-antibody complex after electrophoresis in an agarose gel containing antibodies directed against the protein under investigation.
This method is based on the mobility of protein-antibody complex in an agarose gel during electrophoresis. The antibodies are incorporated into the agarose gel during polymerization and the sample protein is then applied to the wells. The proteins move according to their electrophoretic mobility encountering the antibodies in the gel and forming complexes. These complexes grow in size as the antigen encounters more and more antibodies thereby limiting the migration through the pores of the gel until no further migration occurs. The complexes are visualized by staining the gel. The area delimited by the complexes is proportional to the amount of protein applied to the well. The quantification is performed relative to an internal standard preparation applied in a dilution series on the same gel.
A glass plate was placed on a leveled surface and cleaned with ethanol. 11 mL agarose was pipetted into a test tube in a 56° C. water bath, 15 μL antibody was added, and the solution was mixed gently by inversion. The agarose was poured onto the glass plate carefully avoiding formation of air bubbles. After gelation a series of wells were punched 1.5 cm from the lower edge of the plate. The plate was placed on the cooled surface of the electrophoresis apparatus. Connecting bridges of 5 layers of filter paper were established and the voltage across the gel adjusted to 2V/cm. 10 μL of sample was applied to the wells. […]
as §1
Another method applied to quantify protein content was RIE. The samples Con1, Con2, Sup, and Elu were evaluated together with three Der p 1 standards (125 ng, 250 ng, and 500 ng). […]

[5] = test system: IgE from sera of HDM allergic patients; assay: IgE inhibition assay (ADVIA centaur); format: binding, human
Procedure: This assay evaluates the capacity that an allergen has to bind IgE from sera of patients allergic to that allergen source.
IgE inhibition experiments were performed on an ADVIA centaur instrument. Serial dilutions (performed with the TECAN (P-05-07F294)) of the inhibitor (Antigen in solution or antigen gel adjuvant vaccine) were mixed with a fixed amount of biotinylated antigen and further incubated with a solid phase absorbed IgE. The amount of biotinylated allergen bound to the solid phase was estimated as the light emitted after incubation with streptavidin labelled with acridinium ester. The raw data was processed in Excel and transferred to GraphPad Prism v. 4.0 for the final analysis (curve fitting, plotting and statistical comparisons). The data was fitted to a four parameter logistic function:
After the adsorption the solution was centrifuged for 5 minutes at 13,000 rpm. […] A Der p extract sample was prepared for incubation with pooled sera IgE.

[6] = Adsorbed: Der p 1 adsorbed to aluminium hydroxide (mix 2)
[7] = Control: Der p 1 in the absence of aluminium hydroxide
[8] = Eluted: Der p 1 eluted from aluminium hydroxide with phosphate buffer

Molecule: CC(C)C[C@H](NC(=O)[C@H]1O[C@@H]1C(=O)O)C(=O)NCCCCN=C(N)N (relative stereo) [E-64, L-trans-epoxysuccinyl-L-leucylamido (4-guanidino) butane]
- Inhibition of papain enzyme activity (papain): does not completely inhibit

- Quenching of fluorescence by aluminium hydroxide [1]: no quenching occurred
Molecule: Cc1cc(=O)oc2cc(N)ccc12 [AMC]

- Difference in activity between Con1, Con2 and Mix1 ([2]; one-way ANOVA p-value=0.76, 2 hours experiment): no significant difference
B1: Der p 1: major house dust mite allergen, family C1 cysteine protease, purified from D. pteronyssinus extract (protein, UniProt P08176 99-320, looked up)
Peptidase 1: TNACSINGNAPAEIDLRQMRTVTPIRMQGGCGSCWAFSGVAATESAYLAYRNQSLDLAEQELVDCASQHGCHGDTIPRGIEYIQHNGVVQESYYRYVAREQSCRRPNAQRFGISNYCQIYPPNVNKIREALAQTHSAIAVIIGIKDLDAFRHYDGRTIIQRDNGYQPNYHAVNIVGYSNAQGVDYWIVRNSWDTNWGDNGYGYFAANIDLMMIEEYPYVVIL
- Vmax in Mix2 relative to Vmax in Mix1 [2]: 62%
- Vmax in Sup relative to Vmax in Mix1 [2]: 30%
- Km [2, 6]: 56 µM
- Vmax [2, 6]: 0.15 ng/mL · s
- kcat (Vmax/protein concentration, A280) [2, 6]: 0.022 s⁻¹
- kcat (Vmax/protein concentration, RIE) [2, 6]: 0.019 s⁻¹
- Vmax [2, 7]: 0.25 ng/mL · s
- kcat (Vmax/protein concentration, A280) [2, 7]: 0.024 s⁻¹
- kcat (Vmax/protein concentration, RIE) [2, 7]: 0.018 s⁻¹
- Km ([2]; Control: Der p 1 in the absence of aluminium hydroxide, Boc-QAR-AMC, pH 7.0): 47 µM
- Km [2, 8]: 51 µM
- Vmax [2, 8]: 0.11 ng/mL · s
- kcat (Vmax/protein concentration, A280) [2, 8]: 0.025 s⁻¹
- kcat (Vmax/protein concentration, RIE) [2, 8]: 0.014 s⁻¹
- Difference between Vmax of Con1 and Mix1 ([2]; Newman Keuls multiple comparison test p>0.05): no significant difference
- Activity in Mix2 found in Elu ([2]; Vmax): 68%
- Activity of Der p 1 adsorbed to aluminium hydroxide ([2]; activity measurements): 66%
- Adsorbed activity desorbed after elution from Mix2 with phosphate buffer ([2]; activity measurements): 67%
- Activity of non adsorbed Der p 1 in Sup relative to activity in Mix1 ([2]; activity measurements, 100 μM Boc-QAR-AMC): 33%
- Part of the Der p 1 molecules adsorbed to the aluminium hydroxide ([2]; conclusion): 60-70%
- Vmax of Con2 lower than Vmax in Con1 ([2]; end vs beginning of 2 hours experiment, absence of aluminium hydroxide, t-test p-value=0.0024): 14%
- Difference between KM means of the samples ([2]; one-way ANOVA p-value=0.62): no significant difference
- Adsorbed protein eluted from aluminium hydroxide using phosphate buffer [3]: 56%
- Protein content in Con1 found in Sup [3]: 32%
- Adsorption degree ([3]; 100 μg/mL Der p 1, 1.14 mg/mL aluminium hydroxide, 1 h at 4° C.): approximately 70%
- Adsorbed protein eluted from aluminium hydroxide using phosphate buffer [4]: 98%
- Adsorption degree [4]: approximately 56%
- Protein content in Con1 found in Sup [4]: 44%
- Inhibition of IgE binding, bottom levels of Con1 and Elu ([5]; Der p 1 without aluminium hydroxide (Con1) vs eluted from aluminium hydroxide (Elu)): complete inhibition is possible
- Hill slopes of Con1 and Elu ([5]; one sample t-test p=0.83): not significantly different
